What was measured:
L1210 leukemia cells = test: Survival of mice transplanted with L1210 leukemia cells; type: in vivo, DBA2 mice; details: AraC 1000 mg/kg IP Days 2, 5, 8; DNase II 15 or 45 mg/kg/day IP; alone or combined
Method: Treatment with DNase and AraC was initiated on Day 1 of experiment. Cytosine arabinoside (AraC; Cytosar; Pfizer) was injected IP at a dose of 1000 mg/kg on Days 2, 5 and 8. The injected doses were considered adequate for the model and injection route based on prior experiments (13-14). DNase II (Wornington) was injected IP at doses of 15 mg/kg/day and 45 mg/kg/day on Days 1, 3, 5, 8, 10, 12, 15, 17, and 19.
Animals were randomized into 6 experimental groups of 6 mice per group as follows: • 1. Group I: negative control (no treatment); • 2. Group II: positive control (animals treated with AraC); • 3. Group III: animals treated with AraC and 15 mg/kg DNase; • 4. Group IV: animals treated with AraC and 45 mg/kg DNase; • 5. Group V: animals treated with 15 mg/kg DNase, no AraC; • 6. Group VI: animals treated with 45 mg/kg DNase, no AraC.

[1] = Gastrointestinal lesions after Etoposide/5-FU chemotherapy in rats; type: in vivo, male Wistar rats; details: for Total number of lesions per group: 16 rats; for Total number of lesions per group / Number of lesion free animals (percent) / Median number of lesions / Number of lesion free animals: Etoposide 200 mg/kg + 5-FU 400 mg/kg per os; for Total number of lesions per group / Median number of lesions: 36 hours; for Number of lesion free animals: of 16 rats
Method: Animals were divided into 4 groups of 16 rats each. Two hours after the Etoposide/5-FU challenge, rats were treated as follows: • 1. Group I: IV placebo (WFI); • 2.

in vivo = test: in vivo
Description: Group I: control group (no Doxorubicin, no DNase); • 2.
Animals were monitored during 2 weeks from the beginning of experiment for survival and weight.

[2] = Cyclophosphamide-induced neutropenia, white blood cell count; type: in vivo, BALB/C mice; details: mice, cyclophosphamide 200 mg/kg IP Day 1; for early phase decline in WBC count (FIG. 3): DNase I 25 mg/kg/day IV or GM-CSF 200 μg/kg/day SC Days 2-5
Method: 30 female 10-12 week old BALB/C mice (obtained from Rappolovo animal house) were used in this experiment. […] On Day 1, neutropenia was induced by a single IP injection of 200 mg/kg cyclophosphamide (Cyclophosphanum-LANS) in 200 μl of WFI. Starting on Day 2, mice were then treated as follows: • 1. Group I (n=10): control (no treatment); • 2. Group II (n=10): animals were treated with human recombinant DNase I (Pharmsynthez OJSC) at 25 mg/kg/day (50000 KU/kg/day) dose injected IV on Days 2-5; • 3. Group III (n=10): animals were treated with human recombinant GM-CSF (Neostim, Pharmsynthez OJSC) at 200 μg/kg/day dose injected subcutaneously (SC) on Days 2-5.
The white blood cell count (WBC) in each animal was monitored daily during the 10 day experiment using blood cell counter.

[3] = Myocardial necrosis area in deceased rats challenged with doxorubicin; type: in vivo; details: doxorubicin 7.5 mg/kg, DNase I 15 mg/kg daily IP vs placebo
Method: FIG. 1 is a bar graph showing myocardial necrosis area in deceased rats challenged with sub-lethal IV doses of doxorubicin (7.5 mg/kg) and either daily IP injections of human recombinant DNase I (15 mg/kg) (black bar) or daily IP injections of placebo (WFI) (diagonal hatched bar). Serial myocardium microscopy samples from each heart were analyzed using an automated video analyzer to quantify the necrotic areas. The sum of necrotic area (Sna; nm^2) was calculated as a sum of necrotic areas in 30 serial slides from each individual autopsied heart (n=3 for DNase I-treated rats—black bar; n=5 for placebo-treated rats—diagonal hatched bar).
The hearts deceased rats challenged with sub-lethal doses of doxorubicin (7.5 mg/kg) from (Groups IV and V) were autopsied. Serial myocardium microscopy samples from each heart were analyzed using an automated video analyzer to quantify the necrotic areas. The sum of necrotic area (Sna; nm^2) was calculated as a sum of necrotic areas in 30 serial slides from each individual autopsied heart (n=3 for Group IV (FIG. 1, black bars); n=5 for Group V (FIG. 1, diagonal hatched bars)). Group IV received daily IP injections of human recombinant DNase I at 15 mg/kg dose, while Group V received daily IP injections of placebo (WFI).

Erlich carcinoma cells = test: Erlich carcinoma ascites tumor with radiotherapy: survival and body weight
Method: Radiotherapy was performed using a cobalt-60 teletherapy machine. The abdominal fields of the mice were treated by external irradiation. The fractionation was 200 cGy per day for 5 days. Mice were divided into 6 groups treated as follows: Group 1: radiotherapy only (external irradiation 200 cGy per day for 5 days); Group 2: recombinant human DNAse I (Pharmsynthez) 20 mg/kg/day administered intramuscularly in 2 daily doses; Group 3: recombinant human DNAse I (Pharmsynthez) 40 mg/kg/day administered intramuscularly in 2 daily doses; Group 4: radiotherapy (external irradiation 200 cGy per day for 5 days) plus recombinant human DNAse I (Pharmsynthez) 20 mg/kg/day administered intramuscularly in 2 daily doses; Group 5: radiotherapy (external irradiation 200 cGy per day for 5 days) plus recombinant human DNAse I (Pharmsynthez) 40 mg/kg/day administered intramuscularly in 2 daily doses. Group 6 was a control group receiving placebo (water for injection).

[4] = Doxorubicin 7.5 mg/kg/day IV 5 days + DNase I 15 mg/kg/day IP (Group IV) or placebo (Group V)
[5] = Doxorubicin 10.0 mg/kg/day IV 5 days + DNase I 15 mg/kg/day IP (Group VI) or placebo (Group VII)
[6] = rats, Doxorubicin 7.5 mg/kg/day IV 5 days + DNase I 15 mg/kg/day IP (Group IV) or placebo (Group V), monitored 2 weeks
[7] = rats, Doxorubicin 10.0 mg/kg/day IV 5 days + DNase I 15 mg/kg/day IP (Group VI) or placebo (Group VII), monitored 2 weeks
[8] = Group 2: DNAse I 20 mg/kg/day intramuscularly, no radiotherapy
[9] = Group 3: DNAse I 40 mg/kg/day intramuscularly, no radiotherapy
[10] = Group 4: radiotherapy 200 cGy per day for 5 days plus DNAse I 20 mg/kg/day intramuscularly
[11] = Group 5: radiotherapy 200 cGy per day for 5 days plus DNAse I 40 mg/kg/day intramuscularly

For `Nc1ccn([C@@H]2O[C@H](CO)[C@@H](O)[C@@H]2O)c(=O)n1` [AraC, cytosine arabinoside], the “survival after implantation of L1210 leukemia cells (FIG. 4)” value (L1210 leukemia cells) was “better survival rates versus non-treated mice”.

In the case of `CN/C(=N/CCSCc1nc[nH]c1C)NC#N` [Cimetidine, cimetidine, reference compound], the “Total number of lesions per group” value ([1]; treatment 50 mg/kg IV) is reported as 40, the “Number of lesion free animals (percent)” value ([1]; treatment 50 mg/kg IV) is reported as 62.5% and the “Median number of lesions” value ([1]; treatment 50 mg/kg IV) is reported as 2.5 ± 1.1. The “Number of lesion free animals” value ([1]; treatment 50 mg/kg IV) was 10.

With `COc1cccc2c1C(=O)c1c(O)c3c(c(O)c1C2=O)C[C@@](O)(C(=O)CO)C[C@@H]3O[C@H]1C[C@H](N)[C@H](O)[C@H](C)O1` [Doxorubicin, reference compound] the “Median survival of deceased rats” value (in vivo; [4]) was 8.2 ± 1.0 days, the “Median survival of deceased rats” value (in vivo; [5]) was 6.6 ± 0.9 days and the “Median survival of deceased rats” value (in vivo; male, Wistar, rat, in vivo) was 12 ± 2.1 days. For the same molecule, the “Number of dead/out of total in group” value (in vivo; male, Wistar, rat, in vivo) was 3/6, the LD50 at 2 weeks (in vivo; male, Wistar, rat, in vivo, iv) was 3.75 mg/kg and the “Number of dead/out of total in group” value (in vivo; [6]) was 5/6. The “Number of dead/out of total in group” value (in vivo; [7]) was 6/6.

In the case of “GM-CSF: human recombinant GM-CSF (Neostim, Pharmsynthez OJSC)”, the “early phase decline in WBC count (FIG. 3)” value [2] is reported as “not able to prevent it”.

B1: human recombinant DNase I: human recombinant DNase I (Pharmsynthez OJSC), deoxyribonuclease enzyme (protein, UniProt P24855 23-282, looked up)
Deoxyribonuclease-1: LKIAAFNIQTFGETKMSNATLVSYIVQILSRYDIALVQEVRDSHLTAVGKLLDNLNQDAPDTYHYVVSEPLGRNSYKERYLFVYRPDQVSAVDSYYYDDGCEPCGNDTFNREPAIVRFFSRFTEVREFAIVPLHAAPGDAVAEIDALYDVYLDVQEKWGLEDVMLMGDFNAGCSYVRPSQWSSIRLWTSPTFQWLIPDSADTTATPTHCAYDRIVVAGMLLRGAVVPDSALPFNFQAAYGLSDQLAQAISDHYPVEVMLK
In the case of B1, the “Median survival of deceased rats” value (in vivo; [4]) is reported as 10.3 ± 1.4 days, the “Median survival of deceased rats” value (in vivo; [5]) is reported as 6.2 ± 1.0 days and the “Body weight of surviving rats, Baseline” value (in vivo; rat, in vivo) is reported as 168 ± 4 grams. The “Body weight of surviving rats, Day 4” value (in vivo; rat, in vivo) was 160 ± 6 grams, the “Body weight of surviving rats, Day 7” value (in vivo; rat, in vivo) was 158 ± 5 grams and the “Body weight of surviving rats, Day 14” value (in vivo; rat, in vivo) was 164 ± 6 grams. The “Median survival of deceased rats” value (in vivo; rat, in vivo) was 7 days, the “Number of dead/out of total in group” value (in vivo; rat, in vivo) was 1/6 and the “Number of dead/out of total in group” value (in vivo; [6]) was 3/6. The “Number of dead/out of total in group” value (in vivo; [7]) was 6/6, the “myocardial necrosis area (sum of necrotic area, FIG. 1)” value [3] was “decreases the myocardial necrosis area” and the “Total number of lesions per group” value ([1]; treatment 1.5 mg/kg IV) was 60. The “Total number of lesions per group” value ([1]; treatment 50 mg/kg IV) was 16, the “achieved protection against chemotherapy-induced ulceration” value ([1]; DNase I 50 mg/kg compared to 1.5 mg/kg DNase I and 50 mg/kg cimetidine) was “significantly superior” and the “Number of lesion free animals (percent)” value ([1]; treatment 1.5 mg/kg IV) was 31.25%. The “Median number of lesions” value ([1]; treatment 1.5 mg/kg IV) was 3.75 ± 1.53, the “Number of lesion free animals (percent)” value ([1]; treatment 50 mg/kg IV) was 75% and the “Median number of lesions” value ([1]; treatment 50 mg/kg IV) was 1.00 ± 0.69. For the same molecule, the “Number of lesion free animals” value ([1]; treatment 1.5 mg/kg IV) was 5, the “Number of lesion free animals” value ([1]; treatment 50 mg/kg IV) was 12 and the “macroscopic appearance of stained stomach (FIG. 2A)” value ([1]; oral Etoposide 200 mg/kg and 5-FU 400 mg/kg followed by IV DNase I 50 mg/kg) was “does not have any macroscopic abnormalities”. For the same molecule, the “neutropenia induced by cyclophosphamide (WBC, FIG. 3)” value ([2]; DNase I 25 mg/kg/day IV Days 2-5) was “ameliorates neutropenia”, the “early phase decline in WBC count (FIG. 3)” value [2] was “prevents the typical early phase decline in WBC count” and the “% Survival on Day 16” value (Erlich carcinoma cells; [8]) was 40%. For the same molecule, the “Change in Median Body Weight on Day 16” value (Erlich carcinoma cells; [8]) was “+2 g”, the “% Survival on Day 16” value (Erlich carcinoma cells; [9]) was 50% and the “Change in Median Body Weight on Day 16” value (Erlich carcinoma cells; [9]) was “+1.5 g”. The “% Survival on Day 16” value (Erlich carcinoma cells; [10]) was 80%, the “Change in Median Body Weight on Day 16” value (Erlich carcinoma cells; [10]) was 0 and the “% Survival on Day 16” value (Erlich carcinoma cells; [11]) was 100%. For the same molecule, the “Change in Median Body Weight on Day 16” value (Erlich carcinoma cells; [11]) was “+1.5 g”.
